From patent CN113912731A (SHENGHE CHINA BIO PHARMACY CO LTD, dated 2022)

T1: 人FGL1-his蛋白(Sinobio;Cat:13484-H08B) (human, UniProt Q08830 23-312)
T1 construct: Bought protein; also called 重组人FGL1-his蛋白; not shown: his tag
T1 sequence (looked up): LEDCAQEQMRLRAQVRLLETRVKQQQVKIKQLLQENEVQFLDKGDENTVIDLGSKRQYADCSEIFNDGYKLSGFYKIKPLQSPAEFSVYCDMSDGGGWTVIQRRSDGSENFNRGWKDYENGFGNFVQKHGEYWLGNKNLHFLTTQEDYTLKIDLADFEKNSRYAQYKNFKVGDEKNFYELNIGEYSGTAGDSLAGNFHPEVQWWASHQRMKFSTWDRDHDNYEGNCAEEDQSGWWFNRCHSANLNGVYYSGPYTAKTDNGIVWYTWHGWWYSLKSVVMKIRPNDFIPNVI

T2: 鼠FGL1-his (mouse, UniProt Q71KU9 23-314, limits assumed)
T2 construct: also called 小鼠FGL1蛋白; 鼠FGL1蛋白; not shown: his tag
T2 sequence (looked up): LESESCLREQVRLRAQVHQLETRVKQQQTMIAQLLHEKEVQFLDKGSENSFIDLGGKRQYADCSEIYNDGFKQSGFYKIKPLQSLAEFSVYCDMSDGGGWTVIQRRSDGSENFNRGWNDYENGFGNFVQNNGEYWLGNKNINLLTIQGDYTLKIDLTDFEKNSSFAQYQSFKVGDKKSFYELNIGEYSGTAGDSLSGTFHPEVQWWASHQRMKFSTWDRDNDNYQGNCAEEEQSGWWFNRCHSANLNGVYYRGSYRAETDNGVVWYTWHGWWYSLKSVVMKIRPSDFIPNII

B1: SH-09 (antibody, human IgG1, V domains shown)
VH: QVQLVESGGGLVQPGGSLRLSCTASGFNLDFYTIGWFLQAPGKEREGVSCISNSGGSSVYADSVKGRFTISRDSAKNTVYLQMNSLDPEDTAVYYCAALAGRGCMRSPITTDEYDSWGQGTQVTVSS
notes: Heavy-chain-only antibody from the alpaca immune phage library; expressed in CHO cells; also called 抗体SH-09
B2: SH-04 (antibody, V domains shown)
VH: EVQLQQSGPELEKPGASVKMSCKASGYTFTRYWMHWVKQRPGQGLEWIGMIDPSDSYTSYNQKFKGKATLTVDTSSSTAYMQLSSLTSEDSAVYYCTLRPGLDYWGQGTTLTVSS
VL: DIVMTQSQKFMSTSVGDRVSVTCKASQNVGTNVAWYQQKPGQSPKALIYSASYRYSGVPDRFTGSGSGTDFTLTISNVQSEDLAEYFCQQYNSYPLTFGGGTKLEIK
notes: From hybridoma; also called 抗体SH-04; not shown: 轻链恒定区
B3: SH-08 (antibody, V domains shown)
VH: EVQLVESGGGLVKPGGSLRLSCAASGFTFSSYSMNWVRQAPGKGLEWVSSISSSSSYIYYADSVKGRFTISRDNAKNSLYLQMNSLRAEDTAVYYCARDFPSPSGGRGFRPTTARGYGMDVWGQGTTVTVSS
VL: QSALTQPASVSGSPGQSIIISCTGSKSDIGTYNFVSWYQQHPGKAPNVIIYNVNKRPSGVSDRFSGSKSGNTASLTISGLQAEDEADFYCSSYTSSGTHVFGSGTKVIVL
notes: From the human natural phage display library; also called 抗体SH-08; not shown: 轻链恒定区
B4: SH-06 (antibody, V domains shown)
VH: QVQLQESGPGLVKPSQTLSLTCTVSGGSISSGGYYWSWIRQHPGKGLEWIGYIYYSGSTYYNPSLKSRVTISVDTSKNQFSLKLSSVTAADTAVYYCARDSVMGYAPRVRAFDIWGQGTMVTVSS
VL: QSALTQPPSASGTPGQRVTISCSGSSSNIGTNTVNWYQQLPGTAPKLLIYSTNQRPSGVPDRFSGSKSGTSASLAISGLQSEDEADYYCSSWAGDLNGRLFGGGTKLTVL
notes: From the human natural phage display library; also called 抗体SH-06; not shown: 轻链恒定区
B5: SH-10 (antibody, human IgG1, V domains shown)
VH: EVQLVESGGGLVQPGGSLRLSCAASGDTLDYYAIGWFRQAPGKEREGVSCIRSSGSGPHYSDSVQDRFIISRDNARGTVYLQMNSLKPEDTAVYYCAATEGFYCSPTLSQGEYDYWGQGTQVTVSS
notes: Heavy-chain-only antibody from the alpaca immune phage library; expressed in CHO cells; also called 抗体SH-10
B6: SH-05 (antibody, V domains shown)
VH: EVQLVQSGGVVVQPGGSLRLSCAASGFTFDDYAMHWVRQAPGKGLEWVSLISWDGGSTYYADSVKGRFTISRDNSKNTLYLQMNSLRAEDTAVYYCARNSGRRNWFDPWGQGTLVTVSS
VL: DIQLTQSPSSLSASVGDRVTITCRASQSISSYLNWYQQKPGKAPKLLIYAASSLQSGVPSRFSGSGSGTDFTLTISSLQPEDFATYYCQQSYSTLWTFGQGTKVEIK
notes: From the human natural phage display library; also called 抗体SH-05; not shown: 轻链恒定区
B7: SH-07 (antibody, V domains shown)
VH: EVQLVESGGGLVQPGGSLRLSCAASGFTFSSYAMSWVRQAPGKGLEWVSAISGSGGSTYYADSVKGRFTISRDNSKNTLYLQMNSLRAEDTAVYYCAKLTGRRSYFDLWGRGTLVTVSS
VL: DIQMIQSPSSLSASVGDRVTITCRASQSISHYLNWYQQKPGKVPKLLIYAASSLQSGVPSRFSGSGSGTDFTLTISSLQPEDFATYYCQQSYSTPSFGQGTKVEIK
notes: From the human natural phage display library; also called 抗体SH-07; not shown: 轻链恒定区
B8: SH-03 (antibody, V domains shown)
VH: QVQLQQSGPELVKPGASVKISCKASGYTFTDYYINWLRQKPGQGLEWIGWIYPGSANTNYNEKFKGKAILTVDTSSSTAYMQLSSLTSEDTAVYFCARWLLRSAYWGQGTLVTVSA
VL: DIVLSQSPAILSASPGEKVTMTCRASSSVSYMYWYQQKPGSSPKPWIYATSNLASGVPARFSGSGSGTSYSLTISRVEAEDAATYYCQQWSSNPYTFGGGTKLEIK
notes: From hybridoma; also called 抗体SH-03; not shown: 轻链恒定区

target: T1, 人FGL1-his蛋白(Sinobio;Cat:13484-H08B); test: ELISA, plate coated with human FGL1-his

Q: Does B1 bind?
A: binds

Q: Does B2 bind?
A: binds

Q: Does B3 bind?
A: binds

Q: Does B4 bind?
A: binds

Q: Does B5 bind?
A: binds

Q: Does B6 bind?
A: binds

Q: Does B7 bind?
A: binds

Q: Does B8 bind?
A: binds

target: T2, 鼠FGL1-his; test: human/mouse cross-reactivity (ELISA of Example 8)

Q: Does B7 bind?
A: binds
